From publication PMC3968367

Assays:
His28 = His28 (UniProt position 50, AFGRAHGKCMN); details: free toxin (inferred); cited from earlier work
rKv1.3 (rat) [1] = target: rKv1.3 (rat) (UniProt P15384)
Shaker IR (Drosophila) [2] = target: Shaker IR (Drosophila) (UniProt P08510)
rKv1.2 (rat) [3] = target: rKv1.2 (rat) (UniProt P63142)
rKv1.6 (rat) = rKv1.6 (rat) (UniProt P17659)
rKv1.3 (rat) [4] = target: rKv1.3 (rat) (UniProt P15384); remark: listed apart in the source
Shaker IR (Drosophila) [5] = target: Shaker IR (Drosophila) (UniProt P08510); remark: listed apart in the source
rKv1.1 (rat) = rKv1.1 (rat) (UniProt P10499)
rKv1.2 (rat) [6] = target: rKv1.2 (rat) (UniProt P63142); remark: listed apart in the source

Sequence of rKv1.2 (rat) (P63142 whole entry): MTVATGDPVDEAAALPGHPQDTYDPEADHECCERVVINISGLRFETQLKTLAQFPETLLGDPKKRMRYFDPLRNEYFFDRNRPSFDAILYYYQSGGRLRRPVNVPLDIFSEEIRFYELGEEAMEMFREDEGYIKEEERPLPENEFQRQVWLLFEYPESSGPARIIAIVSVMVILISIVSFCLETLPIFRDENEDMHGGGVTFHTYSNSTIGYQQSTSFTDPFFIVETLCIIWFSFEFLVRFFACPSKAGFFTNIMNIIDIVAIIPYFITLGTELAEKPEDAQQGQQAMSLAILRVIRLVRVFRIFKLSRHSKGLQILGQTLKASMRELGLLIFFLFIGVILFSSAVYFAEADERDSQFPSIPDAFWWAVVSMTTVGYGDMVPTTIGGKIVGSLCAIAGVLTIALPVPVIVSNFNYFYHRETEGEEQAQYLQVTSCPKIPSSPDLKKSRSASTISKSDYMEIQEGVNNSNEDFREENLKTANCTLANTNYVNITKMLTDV
Sequence of Shaker IR (Drosophila) (P08510 whole entry): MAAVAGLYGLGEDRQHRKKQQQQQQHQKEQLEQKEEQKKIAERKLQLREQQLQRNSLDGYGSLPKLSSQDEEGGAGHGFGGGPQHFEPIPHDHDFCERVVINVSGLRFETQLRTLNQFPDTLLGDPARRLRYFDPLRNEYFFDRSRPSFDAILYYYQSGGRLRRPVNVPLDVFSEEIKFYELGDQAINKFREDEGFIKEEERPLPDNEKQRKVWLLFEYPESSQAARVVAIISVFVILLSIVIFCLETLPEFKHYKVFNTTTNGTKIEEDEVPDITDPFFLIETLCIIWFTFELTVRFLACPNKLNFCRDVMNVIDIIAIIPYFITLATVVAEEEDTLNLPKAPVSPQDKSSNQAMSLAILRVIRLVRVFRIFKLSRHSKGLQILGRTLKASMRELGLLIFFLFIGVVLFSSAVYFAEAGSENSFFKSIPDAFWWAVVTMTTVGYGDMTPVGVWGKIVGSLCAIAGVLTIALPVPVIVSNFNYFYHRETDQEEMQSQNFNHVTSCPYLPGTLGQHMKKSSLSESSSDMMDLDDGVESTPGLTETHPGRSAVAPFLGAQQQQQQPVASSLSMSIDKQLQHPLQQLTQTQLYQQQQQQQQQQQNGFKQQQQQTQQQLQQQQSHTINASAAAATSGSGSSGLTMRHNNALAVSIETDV
Sequence of rKv1.3 (rat) (P15384 whole entry): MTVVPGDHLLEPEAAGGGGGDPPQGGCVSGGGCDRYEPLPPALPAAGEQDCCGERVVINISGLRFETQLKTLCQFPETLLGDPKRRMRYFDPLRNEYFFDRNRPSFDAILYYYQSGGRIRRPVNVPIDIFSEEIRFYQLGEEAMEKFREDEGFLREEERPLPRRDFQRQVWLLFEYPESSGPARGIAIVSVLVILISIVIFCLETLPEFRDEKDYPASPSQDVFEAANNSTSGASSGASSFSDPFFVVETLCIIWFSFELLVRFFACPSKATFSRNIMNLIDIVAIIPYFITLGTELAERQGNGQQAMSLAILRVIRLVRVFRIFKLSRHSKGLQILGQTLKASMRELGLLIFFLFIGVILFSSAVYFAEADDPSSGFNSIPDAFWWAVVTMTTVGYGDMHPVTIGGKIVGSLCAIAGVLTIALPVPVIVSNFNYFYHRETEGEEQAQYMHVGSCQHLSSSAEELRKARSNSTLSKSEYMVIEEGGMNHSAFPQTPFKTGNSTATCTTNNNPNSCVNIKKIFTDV
Sequence of rKv1.1 (rat) (P10499 whole entry): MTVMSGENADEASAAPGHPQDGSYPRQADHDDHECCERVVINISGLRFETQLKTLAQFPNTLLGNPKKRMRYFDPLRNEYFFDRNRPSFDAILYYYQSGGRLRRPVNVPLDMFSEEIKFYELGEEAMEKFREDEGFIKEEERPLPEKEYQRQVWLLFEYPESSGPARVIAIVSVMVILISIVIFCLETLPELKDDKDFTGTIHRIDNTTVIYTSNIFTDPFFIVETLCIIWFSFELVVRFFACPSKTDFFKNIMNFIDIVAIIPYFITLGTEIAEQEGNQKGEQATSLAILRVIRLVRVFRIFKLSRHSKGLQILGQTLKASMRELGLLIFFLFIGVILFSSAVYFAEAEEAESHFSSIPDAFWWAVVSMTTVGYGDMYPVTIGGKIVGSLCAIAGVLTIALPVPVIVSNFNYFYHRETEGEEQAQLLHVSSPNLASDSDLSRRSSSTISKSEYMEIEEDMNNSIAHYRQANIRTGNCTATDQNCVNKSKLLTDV
Sequence of rKv1.6 (rat) (P17659 whole entry): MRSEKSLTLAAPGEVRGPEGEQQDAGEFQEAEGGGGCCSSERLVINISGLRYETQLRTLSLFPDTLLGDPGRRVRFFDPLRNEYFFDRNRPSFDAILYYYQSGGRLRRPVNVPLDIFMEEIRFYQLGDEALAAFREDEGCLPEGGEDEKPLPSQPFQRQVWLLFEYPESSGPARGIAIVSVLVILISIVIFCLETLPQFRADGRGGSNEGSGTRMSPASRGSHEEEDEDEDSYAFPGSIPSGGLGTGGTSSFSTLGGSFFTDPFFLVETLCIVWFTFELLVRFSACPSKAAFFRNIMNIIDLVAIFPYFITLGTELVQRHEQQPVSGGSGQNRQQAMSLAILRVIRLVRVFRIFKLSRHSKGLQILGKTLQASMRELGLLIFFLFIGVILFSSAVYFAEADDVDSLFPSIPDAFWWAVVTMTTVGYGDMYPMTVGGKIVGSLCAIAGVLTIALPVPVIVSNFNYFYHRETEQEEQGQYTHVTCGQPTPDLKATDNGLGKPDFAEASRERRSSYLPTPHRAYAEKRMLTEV

Ts6 (alpha-KTx12.1, TsTX-IV, butantoxin) (Tityus serrulatus)
pKa (His28): 5.2

Ts6 (from UniProt P59936 23-62) (peptide)
blocking effect on the K+ current at 1 µM Ts6, two-microelectrode voltage clamp on Xenopus oocytes (rKv1.3 (rat) [1]): 98%
blocking effect on the K+ current at 1 µM Ts6, two-microelectrode voltage clamp on Xenopus oocytes (Shaker IR (Drosophila) [2]): 79%
blocking effect on the K+ current at 1 µM Ts6, two-microelectrode voltage clamp on Xenopus oocytes (rKv1.2 (rat) [3]): 86%

Ts7 (from UniProt P46114 23-59) (peptide)
blocking effect on the K+ current at 1 µM Ts7, two-microelectrode voltage clamp on Xenopus oocytes (rKv1.6 (rat)): 94%
blocking effect on the K+ current at 1 µM Ts7, two-microelectrode voltage clamp on Xenopus oocytes (rKv1.3 (rat) [4]): 89%
blocking effect on the K+ current at 1 µM Ts7, two-microelectrode voltage clamp on Xenopus oocytes (Shaker IR (Drosophila) [5]): 97%
blocking effect on the K+ current at 1 µM Ts7, two-microelectrode voltage clamp on Xenopus oocytes (rKv1.1 (rat)): 85%
blocking effect on the K+ current at 1 µM Ts7, two-microelectrode voltage clamp on Xenopus oocytes (rKv1.2 (rat) [6]): 91%
